# Reference: patent publication US20130309177A1
# Experiments:
# [1] = target: somatostatin receptors on AR42J cells (rat); experiment: apparent IC50; competition with ^111In-DTPA-octreotide on AR42J cells, 3 h at RT
# [2] = target: gastrin-releasing peptide receptor on PC-3 cells (UniProt P30550); experiment: competition with ^125I-BBN on PC-3 cells, repeat experiment (250 to 2 nM competitor)
# gastrin-releasing peptide receptor on PC-3 cells, sequence (P30550 whole entry): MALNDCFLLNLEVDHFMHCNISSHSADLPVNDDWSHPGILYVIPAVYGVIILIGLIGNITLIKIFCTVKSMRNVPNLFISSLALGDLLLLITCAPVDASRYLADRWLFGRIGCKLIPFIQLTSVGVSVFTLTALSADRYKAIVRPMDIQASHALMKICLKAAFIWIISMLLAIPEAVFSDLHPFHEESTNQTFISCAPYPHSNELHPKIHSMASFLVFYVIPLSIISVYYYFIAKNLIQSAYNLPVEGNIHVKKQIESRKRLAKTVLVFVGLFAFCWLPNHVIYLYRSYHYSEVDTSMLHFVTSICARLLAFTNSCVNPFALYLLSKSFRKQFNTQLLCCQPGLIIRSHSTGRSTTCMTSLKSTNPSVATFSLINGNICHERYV
# somatostatin receptors on AR42J cells (rat), sequence (P30680 whole entry): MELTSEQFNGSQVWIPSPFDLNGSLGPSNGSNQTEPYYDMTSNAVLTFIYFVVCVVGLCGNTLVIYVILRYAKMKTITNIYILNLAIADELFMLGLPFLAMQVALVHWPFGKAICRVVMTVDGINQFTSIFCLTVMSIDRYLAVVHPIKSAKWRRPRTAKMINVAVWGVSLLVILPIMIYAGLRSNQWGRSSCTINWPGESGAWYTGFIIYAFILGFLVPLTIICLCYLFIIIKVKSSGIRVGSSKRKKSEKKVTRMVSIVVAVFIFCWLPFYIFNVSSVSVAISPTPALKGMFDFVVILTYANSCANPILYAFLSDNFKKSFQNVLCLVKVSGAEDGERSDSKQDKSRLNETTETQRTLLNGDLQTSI
IC50 [1],IC50 [2],Substance
6.3 nM,–,^115In-DTPA-octreotide (peptide)
13 nM,–,^69Ga-IMP466 (gallium complex of IMP 466) (peptide)
3.6 nM,–,"^19F-IMP466 (Al^19F complex of IMP 466, NOTA-D-Phe-Cys-Phe-D-Trp-Lys-Thr-Cys-Throl) (peptide)"
–,24.4 nM,commercially available BBN peptide
